Substitutions are numbered along the chain they refer to.

Sequences and labels used below:
B1: C-15 (antibody, V domains shown)
VH: QVQLVESGGGVVQPGRSLRLSCAASGFTFSSYGMHWVRQAPGKGLEWVAVIWYDGSNKYYADSVKGRFTISRDNSKNTLYLQMNSLRAEDTAVYYCAKGVGYDTGTDMDVWGKGTTVTVSS
VL: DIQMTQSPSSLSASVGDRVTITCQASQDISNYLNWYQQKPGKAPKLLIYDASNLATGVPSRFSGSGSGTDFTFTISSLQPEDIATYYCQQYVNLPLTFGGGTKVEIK
notes: human IgG1
B2: C-14 (antibody, V domains shown)
VH: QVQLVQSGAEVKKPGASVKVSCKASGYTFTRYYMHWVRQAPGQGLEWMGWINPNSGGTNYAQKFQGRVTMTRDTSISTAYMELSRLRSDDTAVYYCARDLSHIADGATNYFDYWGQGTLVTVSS
VL: DIQMTQSPSSVSASVGDRVTITCRASQGISSWLAWYQQKPGKAPKLLIYAASSLQSGVPSRFSGSGSGTDFTLTISSLQPEDFATYYCQQANYFPTFGGGTKVEIK
notes: human IgG1
B3: C-20 (antibody, V domains shown)
VH: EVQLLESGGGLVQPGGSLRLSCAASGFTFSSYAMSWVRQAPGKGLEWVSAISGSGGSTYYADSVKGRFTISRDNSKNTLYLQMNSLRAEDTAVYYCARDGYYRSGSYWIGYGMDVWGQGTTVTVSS
VL: EIVLTQSPGTLSLSPGERATLSCRASQSVSSSFLAWYQQKPGQAPRLLIYGASSRATGIPDRFSGSGSGTDFTLTISRLEPEDFAVYYCQQVDSYPPTFGGGTKVEIK
notes: human IgG1
B4: C-22 (antibody, V domains shown)
VH: QVQLQESGPGLVKPSETLSLTCAVSGYSISSGYYWGWIRQPPGKGLEWIGSIYHSGNTYYNPSLKSRVTISVDTSKNQFSLKLSSVTAADTAVYYCARDGRYSSSGELYYGMDVWGQGTTVTVSS
VL: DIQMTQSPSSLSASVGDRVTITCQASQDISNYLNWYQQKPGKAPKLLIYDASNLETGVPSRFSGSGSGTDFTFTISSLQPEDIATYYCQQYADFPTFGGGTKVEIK
notes: human IgG1
B5: C-26 (antibody, V domains shown)
VH: QLQLQESGPGLVKPSETLSLTCTVSGGSISSNSYYWGWIRQPPGKGLEWIGSIYYSGSTYYNPSLKSRVTISVDTSKNQFSLKLSSVTAADTAVYYCARSPVYYDSSGYFQYYGMDVWGQGTTVTVSS
VL: EIVLTQSPATLSLSPGERATLSCRASQSVSSYLAWYQQKPGQAPRLLIYDASKRATGIPARFSGSGSGTDFTLTISSLEPEDFAVYYCQQSIVWPPFTFGGGTKVEIK
notes: human IgG1
B6: C-16 (antibody, V domains shown)
VH: EVQLVESGGGLVQPGGSLRLSCAASGFTFSSYWMSWVRQAPGKGLEWVANINQDGSEKYYVDSVKGRFTISRDNAKNSLYLQMNSLRAEDTAVYYCAREGSDRHPFDYWGQGTLVTVSS
VL: DIQMTQSPSSLSASVGDRVTITCRASQSISSYLNWYQQKPGKAPKLLIYAASSLQSGVPSRFSGSGSGTDFTLTISSLQPEDFATYYCQQAYLVPLTFGGGTKVEIK
notes: human IgG1
B7: C-23 (antibody, V domains shown)
VH: QVQLQESGPGLVKPSETLSLTCAVSGYSISSGYYWGWIRQPPGKGLEWIGTIYHSGSTYYNPSLKSRVTISVDTSKNQFSLKLSSVTAADTAVYYCAREVGVVGALPYFDYWGQGTLVTVSS
VL: B6 VL with A50G, Y92S, L93S, V94S, L96P
notes: human IgG1
B8: C-25 (antibody, V domains shown)
VH: EVQLVESGGGLVQPGGSLRLSCAASGFTFSSYWMSWVRQAPGKGLEWVANIKSDGSEKYYVDSVKGRFTISRDNAKNSLYLQMNSLRAEDTAVYYCAREGFRDGINWFDPWGQGTLVTVSS
VL: B6 VL with S31R, A91Q, Y92F, V94T, L96I
notes: human IgG1

T2 sequence (P20138 18-259 limits assumed): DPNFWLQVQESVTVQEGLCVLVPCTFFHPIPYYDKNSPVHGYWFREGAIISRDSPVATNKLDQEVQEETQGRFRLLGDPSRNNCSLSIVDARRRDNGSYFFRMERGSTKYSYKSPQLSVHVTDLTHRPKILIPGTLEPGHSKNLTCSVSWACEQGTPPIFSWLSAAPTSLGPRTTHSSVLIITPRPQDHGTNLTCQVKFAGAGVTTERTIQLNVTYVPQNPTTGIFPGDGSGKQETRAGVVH
T1 sequence (P20138 18-364): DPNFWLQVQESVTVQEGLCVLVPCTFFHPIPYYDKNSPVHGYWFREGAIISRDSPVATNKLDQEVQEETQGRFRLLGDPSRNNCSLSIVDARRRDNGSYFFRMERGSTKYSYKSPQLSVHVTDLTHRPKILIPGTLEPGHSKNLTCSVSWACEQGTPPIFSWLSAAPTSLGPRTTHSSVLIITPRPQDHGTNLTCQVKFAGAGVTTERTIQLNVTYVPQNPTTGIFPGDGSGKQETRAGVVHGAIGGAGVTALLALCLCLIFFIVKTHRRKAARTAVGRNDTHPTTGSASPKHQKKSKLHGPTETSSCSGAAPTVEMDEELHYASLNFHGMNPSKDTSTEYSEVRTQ

One assay concerns the target T1, human CD33 (human, UniProt P20138 18-364).
T1 construct: CD33 on human primary dendritic cells, macrophages, monocytes and T cells and on CHO cells expressing recombinant human CD33; also called Siglec-3; hCD33
Put plainly: flow cytometry, human primary T cells.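 Further: binding of anti-CD33 antibodies at 10 ug/ml to human primary T cells, 1 h on ice, detected with PE-labelled secondary antibody, read as flow cytometry MFI.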
Procedure: (§1) Initial characterization of CD33 antibodies involved determining their ability to bind CD33 expressed on a CHO cell line, on human primary monocytes, human primary macrophages, human primary dendritic cells, and on human primary T cells. Cells were harvested, plated at 10⁶/ml in a 96 well plate, and incubated in 100 ul PBS containing 2% FBS, 2 mM EDTA and 10 ug/ml Mab and Fc blocking reagent for 1 hour in ice. Cells were washed twice and incubated in 100 ul PBS containing 2% FBS, 2 mM EDTA and 5 ug/ml PE-conjugated secondary antibody for 30 minutes on ice. Cells were washed twice in cold PBS and analyze by flow cytometry on a BD FACS Canto. Data analysis and calculation of MFI values was performed with FlowJo (TreeStar) software version 10.0.7.
In the case of B1, the “T cell MFI” value worked out at 206.

For B2, the “T cell MFI” value was found to be 35.7.

Consider B3, for which the “T cell MFI” value came to 205.

Regarding B4, the “T cell MFI” value is 207.

With B5, the “T cell MFI” value is 198.

For B6, the “T cell MFI” value came to 229.

Take B7: the “T cell MFI” value came to 242.

For the molecule B8, the “T cell MFI” value came to 187.

Another assay concerns the target T2, human CD33 Fc fusion protein (human, UniProt P20138 18-259).
T2 construct: also called hCD33-Fc; human CD33/Fc chimera (R&D Systems)
Put plainly: ForteBio BLI or MSD-SET, IgG, avid.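 Further: Anti-CD33 IgG affinity by BLI, IgG captured on AHQ sensors with antigen in solution and a one-to-one kinetic fit, or by MSD solution equilibrium titration with quadratic fit.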 Background: BLI is a label-free optical method that tracks binding on a fibre tip over time.
Broadly, the Kd is the constant that tells how readily two partners part at equilibrium. B1 came in with a Kd of 1.82 nM.

In turn, B2 yielded a Kd of 1.28 nM.

B3 yielded a Kd of 0.304 nM.

For the molecule B4, binding was characterised by a dissociation constant (Kd) of 0.445 nM.

Turning to B5, the Kd amounted to 0.388 nM.

B6 yielded a Kd of 1.35 nM.

Take B7: binding was characterised by a dissociation constant (Kd) of 3.39 nM.

In turn, B8 returned a Kd of 1.85 nM.

In another assay the target is T1, human CD33. In words: flow cytometry, human primary monocytes.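 Further: binding of anti-CD33 antibodies at 10 ug/ml to human primary monocytes, 1 h on ice, detected by PE-labelled secondary antibody, flow cytometry readout as mean fluorescence intensity.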 Also noted: reference not given here.
Consider B1, for which the “Monocyte MFI” value is 191.

On to B2, for which the “Monocyte MFI” value amounted to 178.

Regarding B3, the “Monocyte MFI” value was found to be 196.

With B4, the “Monocyte MFI” value worked out at 188.

With B5, the “Monocyte MFI” value was determined as 188.

As for B6, the “Monocyte MFI” value stood at 133.

For the molecule B7, the “Monocyte MFI” value is 128.

With B8, the “Monocyte MFI” value was 139.

In another assay the target is T1, human CD33. In words: flow cytometry, human primary dendritic cells.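 Further: binding of anti-CD33 antibodies (10 ug/ml, 1 h on ice) to human primary dendritic cells, detected with a PE-labelled secondary antibody, reported as flow cytometry MFI.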 On the technique in general: In flow cytometry, cells or beads pass a laser one at a time.
In the case of B1, the “DC MFI” value came out at 2020.

Regarding B2, the “DC MFI” value is 1120.

As to B3, the “DC MFI” value came to 1700.

Take B4: the “DC MFI” value came to 1650.

On to B5, for which the “DC MFI” value came to 1960.

As to B6, the “DC MFI” value is 1750.

In the case of B7, the “DC MFI” value is 1050.

Regarding B8, the “DC MFI” value came out at 1790.

A further assay deals with T1, human CD33. In words: flow cytometry, human primary macrophages.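 Further: binding of CD33 antibodies at 10 µg/ml to human primary macrophages, 1 h on ice, detected with PE-labelled secondary antibody by flow cytometry, reported as MFI.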
Procedure: as §1
Regarding B1, the “Macrophage MFI” value is 883.

Take B2: the “Macrophage MFI” value stood at 746.

On to B3, for which the “Macrophage MFI” value came out at 730.

For the molecule B4, the “Macrophage MFI” value was 912.

In the case of B5, the “Macrophage MFI” value turned out to be 926.

Consider B6, for which the “Macrophage MFI” value was determined as 711.

As for B7, the “Macrophage MFI” value is 771.

For the molecule B8, the “Macrophage MFI” value is 877.

In another assay the target is T3, human monomeric His tagged CD33 protein (human, UniProt P20138 18-259).
T3 construct: also called hCD33-His
T3 sequence (P20138 18-259 limits assumed): as the sequence (P20138 18-259 limits assumed) above
In words: ForteBio BLI or MSD-SET, IgG, monomeric antigen.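 Further: BLI: antibodies captured on AHQ sensors, 100 nM antigen association 5 min, dissociation 5 min, 1:1 fit. MSD-SET: antigen fixed at 50 pM, antibody titrated, quadratic fit.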
B1 gave a Kd of 6.55 nM.

B2: binding was characterised by a dissociation constant (Kd) of 3.49 nM.

B3 came in with a Kd of 0.958 nM.

On to B4, for which the affinity, expressed as Kd, was 1.97 nM.

The molecule B5 displayed a Kd of 1.57 nM.

As for B6, the Kd stood at 5.87 nM.

B7 returned a Kd of 21.1 nM.

On to B8, for which binding was put at a Kd of 8.78 nM.

The target of a further assay is T2, human CD33 Fc fusion protein. In words: RBC adhesion to plate-bound CD33-Fc; antibody 0.5 ug/ml.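 Further: Plate-coated CD33-Fc preincubated 1 h with antibody, then red blood cells added for 1 h at room temperature, adherent cells lysed and quantified via peroxidase activity.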
As to B1, the “Percent RBC Binding to CD33” value was 15.3%.

With B2, the “Percent RBC Binding to CD33” value came out at 76.5%.

Take B3: the “Percent RBC Binding to CD33” value is 12.5%.

Take B4: the “Percent RBC Binding to CD33” value came out at 11.5%.

Turning to B5, the “Percent RBC Binding to CD33” value is 19.2%.

Regarding B6, the “Percent RBC Binding to CD33” value came out at 17.2%.

In the case of B7, the “Percent RBC Binding to CD33” value turned out to be 13.8%.

On to B8, for which the “Percent RBC Binding to CD33” value was 11.3%.

A further assay concerns the target T4, mouse CD33 Fc fusion protein (mouse, UniProt Q63994 18-240, limits assumed).
T4 construct: also called mCD33-Fc
T4 sequence: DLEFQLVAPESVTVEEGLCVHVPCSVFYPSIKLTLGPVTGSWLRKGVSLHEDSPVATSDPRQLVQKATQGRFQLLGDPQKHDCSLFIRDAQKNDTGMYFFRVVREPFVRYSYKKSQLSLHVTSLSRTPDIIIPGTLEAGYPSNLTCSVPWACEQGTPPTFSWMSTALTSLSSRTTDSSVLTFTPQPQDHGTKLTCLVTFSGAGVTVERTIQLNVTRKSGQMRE
Put plainly: ForteBio BLI or MSD-SET.
On to B1, for which the binding result was “no binding (tested: 100 nM)”.

Regarding B2, the binding result was “no binding (tested: 100 nM)”.

As for B3, the binding result is given as “no binding (tested: 100 nM)”.

As for B4, the binding result is recorded as “no binding (tested: 100 nM)”.

Take B5: the binding result is on record as “no binding (tested: 100 nM)”.

On to B6, for which the binding result is reported as “no binding (tested: 100 nM)”.

As for B7, the binding result was “no binding (tested: 100 nM)”.

Consider B8, for which the binding result was “no binding (tested: 100 nM)”.

For a further assay, the target named is T2, human CD33 Fc fusion protein. Put plainly: RBC adhesion to plate-bound CD33-Fc; antibody 1.0 ug/ml.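 Further: red blood cells adhering to plate-coated CD33-Fc after 1 h antibody pretreatment, then 1 h at room temperature, bound cells read as peroxidase activity after lysis.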
Procedure: Briefly, 5 ug/ml CD33-Fc was coated overnight at RT in 96 well Immunolon plates, then washed with PBS, blocked for one hour with binding buffer (PBS containing %0.25 BSA 1 mM CaCl₂). CD33 antibodies (0.5 ug/ml or 1.0 ug/ml) or Fabs (25 ug/ml) were bound for one hour at RT with gentle rocking. After removal of unbound antibody, red blood cells were added to each well at a concentration of 3.0×10⁶ cells per ml and incubated at RT for one hour. Unbound RBCs were then carefully washed off 3× with PBS, and water was added to each well for hypotonic lysis of bound RBCs. The plate was transferred to −80° C. for 10 minutes, followed by 37° C. for 15 minutes. Bound RBCs were detected by peroxidase activity, followed by 2N sulfuric acid to stop the reaction.
With B1, the “Percent RBC Binding to CD33” value is 8.77%.

For the molecule B2, the “Percent RBC Binding to CD33” value came out at 80.8%.

In the case of B3, the “Percent RBC Binding to CD33” value worked out at 9.4%.

Consider B4, for which the “Percent RBC Binding to CD33” value came out at 9.95%.

B5: the “Percent RBC Binding to CD33” value was 15.2%.

As to B6, the “Percent RBC Binding to CD33” value was 7.69%.

In the case of B7, the “Percent RBC Binding to CD33” value was determined as 8.42%.

Regarding B8, the “Percent RBC Binding to CD33” value is 10.1%.

The target of a further assay is T1, human CD33. Put plainly: cell-based or functional assay.
In the case of B1, the “Percent CD33 Surface Expression, DC % CD33” value came out at 17%; the “Percent CD33 Surface Expression, Macrophage % CD33” value came out at 42%; the “Percent CD33 Surface Expression, Monocyte % CD33” value was 32.6%.

For B2, the “Percent CD33 Surface Expression, DC % CD33” value was determined as 63.1%; the “Percent CD33 Surface Expression, Macrophage % CD33” value was 97.4%; the “Percent CD33 Surface Expression, Monocyte % CD33” value stood at 101%.

For B3, the “Percent CD33 Surface Expression, DC % CD33” value is 30.2%; the “Percent CD33 Surface Expression, Macrophage % CD33” value is 54.3%; the “Percent CD33 Surface Expression, Monocyte % CD33” value was determined as 53.9%.

Take B4: the “Percent CD33 Surface Expression, DC % CD33” value was found to be 17%; the “Percent CD33 Surface Expression, Macrophage % CD33” value came out at 44%; the “Percent CD33 Surface Expression, Monocyte % CD33” value was found to be 40.7%.

On to B5, for which the “Percent CD33 Surface Expression, DC % CD33” value was determined as 18.8%; the “Percent CD33 Surface Expression, Macrophage % CD33” value came out at 45.1%; the “Percent CD33 Surface Expression, Monocyte % CD33” value was found to be 33%.

As for B6, the “Percent CD33 Surface Expression, DC % CD33” value came to 19.5%; the “Percent CD33 Surface Expression, Macrophage % CD33” value was found to be 62.6%; the “Percent CD33 Surface Expression, Monocyte % CD33” value was determined as 42.4%.

For the molecule B7, the “Percent CD33 Surface Expression, DC % CD33” value stood at 69.5% and the “Percent CD33 Surface Expression, Monocyte % CD33” value amounted to 71.3%.

For B8, the “Percent CD33 Surface Expression, DC % CD33” value stood at 22.3%; the “Percent CD33 Surface Expression, Macrophage % CD33” value is 41.9%; the “Percent CD33 Surface Expression, Monocyte % CD33” value is 35.4%.
